One data set deals with LC3B-R/Q (human, UniProt Q9GZQ8 1-120, R68Q;R69Q;R70Q). Kind of data set: EMSA; 1 mM Mg2+, 2 uM probe; EMSA: 40 mM Tris pH 8.0, 30 mM KCl, 1 mM MgCl2, 0.01% NP-40, 1 mM DTT, 30 C 1 h; FP: same buffer without NP-40, 100 nM RNA final (200 nM stock diluted 1:2), pro. (A gel shift assay detects complexes by their altered migration in electrophoresis.)
The target in data set [1] is LC3B-WT (mature, cleaved by ATG4B) (human, UniProt Q9GZQ8 1-120). The data set is described as above.

With AAUAAAAAUAAAAAUAAA (ssRNA) [Cy5-AAUAAAx3], the binding result in the data set with LC3B-R/Q is “no binding”; in data set [1], “binds”.

The record behind these values is publication PMC8931120, “LC3B is an RNA-binding protein to trigger rapid mRNA degradation during autophagy”.
